Like-named read-outs stand apart in the source and are kept apart here.
Key:
Assay in all cases: EMSA
MAZ = molecular target: T1, MAZ (UniProt P56270)
T1 sequence: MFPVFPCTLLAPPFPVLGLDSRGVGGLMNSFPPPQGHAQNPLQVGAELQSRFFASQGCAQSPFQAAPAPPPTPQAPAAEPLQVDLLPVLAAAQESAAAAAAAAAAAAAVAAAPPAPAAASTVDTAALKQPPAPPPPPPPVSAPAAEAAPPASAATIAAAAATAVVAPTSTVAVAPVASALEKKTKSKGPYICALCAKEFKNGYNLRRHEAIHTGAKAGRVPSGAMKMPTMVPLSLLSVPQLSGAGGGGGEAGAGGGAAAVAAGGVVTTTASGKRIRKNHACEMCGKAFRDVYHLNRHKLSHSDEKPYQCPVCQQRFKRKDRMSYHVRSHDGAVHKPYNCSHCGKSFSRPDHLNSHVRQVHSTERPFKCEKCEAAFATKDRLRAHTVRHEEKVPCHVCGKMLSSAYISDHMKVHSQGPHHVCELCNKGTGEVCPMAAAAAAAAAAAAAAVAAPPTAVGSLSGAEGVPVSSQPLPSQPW

OGG1 (hOGG1) [1] = molecular target: T2, OGG1 (hOGG1) (UniProt O15527 1-345)
T2 sequence (O15527 whole entry): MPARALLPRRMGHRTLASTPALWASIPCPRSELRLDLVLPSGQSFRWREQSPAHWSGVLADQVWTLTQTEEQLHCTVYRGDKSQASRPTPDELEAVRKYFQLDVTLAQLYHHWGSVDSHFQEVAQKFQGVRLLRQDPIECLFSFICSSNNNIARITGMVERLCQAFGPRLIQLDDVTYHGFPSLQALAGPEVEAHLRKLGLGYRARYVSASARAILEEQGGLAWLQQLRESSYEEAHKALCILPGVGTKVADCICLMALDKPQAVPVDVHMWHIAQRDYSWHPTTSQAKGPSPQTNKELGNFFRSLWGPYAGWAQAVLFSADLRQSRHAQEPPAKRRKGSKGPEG

OGG1 (hOGG1) [2] = molecular target: T2, OGG1 (hOGG1); remark: listed apart in the source

With “AGGGCGGTGTGGGAAGAGGGAAGAGGGGGAGG [32R G4]” the binding signal (MAZ) was 1 reference.

Molecule “AGGGCGGTGTGGGAAGAGGGAAGAGGGGGAGG [95 G4]” has a binding signal (fold vs 32R G4) (MAZ; 8-oxoG at G16) of 5.

“AGGGCGGTGTGGGAAGAGGGAAGAGGGGGAGG [96 G4]” was tested, and the binding signal (fold vs 32R G4) (MAZ; 8-oxoG in 11-nt loop (Table 1: one; text: two; positions only in figure)) was 5.

“AGGGCGGTGTGGGAAGAGGGAAGAGGGGGAGG [97 G4]” was tested, and the binding signal (fold vs 32R G4) (MAZ; 8-oxoG at G16 and G23) was 5.

AGGGCGGTGTGGGAAGAGGGAAGAGGGGGAGG (structured_DNA) [32R G4]: binds (OGG1 (hOGG1) [1]).

AGGGCGGTGTGGGAAGAGGGAAGAGGGGGAGG (structured_DNA, one 8-oxoG in G-run III (exact position only in figure)) [93 G4]: binds (OGG1 (hOGG1) [2]).

AGGGCGGTGTGGGAAGAGGGAAGAGGGGGAGG (structured_DNA, 8-oxoG at G6) [92 G4]: binds (OGG1 (hOGG1) [2]).

AGGGCGGTGTGGGAAGAGGGAAGAGGGGGAGG (structured_DNA, two 8-oxoG in G-tetrad runs (exact positions only in figure)) [94 G4]: binds (OGG1 (hOGG1) [2]).
